Test results reported in publication PMC4027191 (Nucleic Acids Research, 2014).

T1: Recombinant His-tagged RECQL1 (human, UniProt P46063 1-649)
T1 sequence (looked up): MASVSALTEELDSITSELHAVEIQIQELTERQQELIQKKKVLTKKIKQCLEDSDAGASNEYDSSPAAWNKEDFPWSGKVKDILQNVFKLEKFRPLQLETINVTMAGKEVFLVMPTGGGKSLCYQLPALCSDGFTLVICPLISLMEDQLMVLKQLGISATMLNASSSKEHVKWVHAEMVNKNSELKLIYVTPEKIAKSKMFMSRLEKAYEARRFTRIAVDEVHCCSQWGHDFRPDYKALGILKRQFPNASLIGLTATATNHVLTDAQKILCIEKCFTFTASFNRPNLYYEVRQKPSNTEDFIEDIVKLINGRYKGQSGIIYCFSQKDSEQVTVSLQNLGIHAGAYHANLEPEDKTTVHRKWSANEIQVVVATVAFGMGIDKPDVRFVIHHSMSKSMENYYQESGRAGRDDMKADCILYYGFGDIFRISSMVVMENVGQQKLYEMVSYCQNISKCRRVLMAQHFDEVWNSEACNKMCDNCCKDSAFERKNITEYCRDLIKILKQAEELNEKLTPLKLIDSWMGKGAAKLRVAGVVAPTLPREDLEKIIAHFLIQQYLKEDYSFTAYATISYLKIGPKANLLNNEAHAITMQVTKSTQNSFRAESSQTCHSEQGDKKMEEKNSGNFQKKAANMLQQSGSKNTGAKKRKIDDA

B1: DL1 (telomeric D-loop) (structured_DNA)
DNA 1: CACCATCCAGTTCTCTTTTGAGAACTGGATGGTGTTAGGGTTAGGGTTAGGGTTAGGGTTAACGCTC
DNA 2: TCAAGCTCGGTCTGCAGTCAGGATGATTGTGAGCGTTAACCCTAACCCTAACCCTAACCCTAATCTGCACTCGAGACTCACGTCCTGGTCACG
DNA 3: CGTGACCAGGACGTGAGTCTCGAGTGCAGACCTTTTTTTTTTTTTTTTTTTTTTTTTTTTTTTACAATCATCCTGACTGCAGACCGAGCTTGA
B2: DL4 (telomeric D-loop with two 8-oxoG) (structured_DNA)
DNA 1: B1 DNA 1
DNA 2: B1 DNA 2
DNA 3: B1 DNA 3
modifications: 8-oxo-dG at positions 39 and 57 of strand 1 (written as G)
B3: Recombinant histidine-tagged human TRF2 (natural protein, UniProt Q15554 1-542, looked up)
chain: MAAGAGTAGPASGPGVVRDPAASQPRKRPGREGGEGARRSDTMAGGGGSSDGSGRAAGRRASRSSGRARRGRHEPGLGGPAERGAGEARLEEAVNRWVLKFYFHEALRAFRGSRYGDFRQIRDIMQALLVRPLGKEHTVSRLLRVMQCLSRIEEGENLDCSFDMEAELTPLESAINVLEMIKTEFTLTEAVVESSRKLVKEAAVIICIKNKEFEKASKILKKHMSKDPTTQKLRNDLLNIIREKNLAHPVIQNFSYETFQQKMLRFLESHLDDAEPYLLTMAKKALKSESAASSTGKEDKQPAPGPVEKPPREPARQLRNPPTTIGMMTLKAAFKTLSGAQDSEAAFAKLDQKDLVLPTQALPASPALKNKRPRKDENESSAPADGEGGSELQPKNKRMTISRLVLEEDSQSTEPSAGLNSSQEAASAPPSKPTVLNQPLPGEKNPKVPKGKWNSSNGVEEKETWVEEDELFQVQAAPDEDSTTNITKKQKWTVEESEWVKAGVQKYGEGNWAAISKNYPFVNRTAVMIKDRWRTMKRLGMN

Assays:
RECQL1 = RECQL1 (Homo sapiens, UniProt P46063 1-649); assay: EMSA; EMSA buffer, pH and temperature not given in the material
TRF1 [1] = target: T2, TRF1 (Homo sapiens, UniProt P54274 1-439); assay: EMSA; text gives ~50 nM; EMSA buffer, pH and temperature not given in the material
T2 sequence (P54274 whole entry): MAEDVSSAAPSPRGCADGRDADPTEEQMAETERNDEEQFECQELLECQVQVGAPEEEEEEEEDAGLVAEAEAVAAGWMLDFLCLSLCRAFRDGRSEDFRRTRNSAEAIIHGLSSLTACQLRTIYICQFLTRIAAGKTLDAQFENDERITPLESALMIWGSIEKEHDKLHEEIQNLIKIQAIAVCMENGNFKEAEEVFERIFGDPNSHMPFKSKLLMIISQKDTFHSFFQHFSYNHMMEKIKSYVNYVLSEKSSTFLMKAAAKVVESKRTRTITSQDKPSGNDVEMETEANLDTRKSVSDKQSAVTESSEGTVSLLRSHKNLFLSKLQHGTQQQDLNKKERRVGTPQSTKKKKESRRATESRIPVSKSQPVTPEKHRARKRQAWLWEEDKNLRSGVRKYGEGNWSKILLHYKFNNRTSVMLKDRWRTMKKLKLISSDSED

TRF2 [2] = target: T3, TRF2 (Homo sapiens, UniProt Q15554 1-542); assay: EMSA; text gives ~100 nM, binds weakly; EMSA buffer, pH and temperature not given in the material
TRF2 [3] = target: T3, TRF2; assay: EMSA; EMSA buffer, pH and temperature not given in the material
TRF1 [4] = target: T2, TRF1; assay: as above
[5] = target: T1, Recombinant His-tagged RECQL1; assay: cell-based or functional assay

Row | helicase activity of RECQL1 left on the 8-oxoguanine telomeric D-loop DL4 with TRF2 at a molar ratio of 1:4 (RECQL1:TRF2) [5] [%] | Binder | Kd (RECQL1) [nM] | Kd (TRF1 [1]) [nM] | Kd (TRF2 [2]) [nM] | Kd (TRF2 [3]) [nM] | Kd (TRF1 [4]) [nM]
1 |  | B1 | 10 ± 2.5 | 40 ± 5 | 90 ± 12.5 |  | 
2 |  | B2 | 12.5 ± 5 |  |  | 125 ± 10 | 50 ± 10
3 | ~40 | B3 |  |  |  |  | 
